How the values were obtained:
[1] = tested on: HeLa Kyoto; assay: solubility in G1/S (NP-40 vs SDS abundance) (log2 ratio); higher = more soluble; conditions: cell cycle stage: G1/S
[2] = tested on: HeLa Kyoto; assay: melting temperature (median over replicates), in situ; higher = more thermally stable
[3] = tested on: HeLa Kyoto; assay: solubility change mitosis vs G1/S (difference of NP-40 vs SDS log2 ratios) (log2 ratio difference); higher = more soluble in mitosis
[4] = tested on: HeLa Kyoto; assay: thermal stability score vs G1/S (z-score of summed log2 fold changes over temperatures); higher = more thermally stable than in G1/S
[5] = cell cycle stage: early G1 (4.5 h after nocodazole release)
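Wherever melting temperature (median over replicates), in situ is given: HeLa Kyoto cells synchronized by double thymidine or nocodazole block, proteins quantified by TMT10plex mass spectrometry, three independent biological replicates.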
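Wherever solubility change mitosis vs G1/S (difference of NP-40 vs SDS log2 ratios) is given: synchronized HeLa Kyoto cells (double thymidine block for G1/S, nocodazole release for mitosis), protein amounts in NP-40 versus SDS lysates quantified by mass spectrometry, three biological replicates.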
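Wherever solubility in G1/S (NP-40 vs SDS abundance) is given: HeLa Kyoto cells arrested at G1/S by double thymidine block, proteins quantified by TMT10plex mass spectrometry in mild NP-40 versus SDS extracts, three biological replicates.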
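Wherever thermal stability score vs G1/S (z-score of summed log2 fold changes over temperatures) is given: synchronized HeLa Kyoto cells, proteins quantified by TMT10plex mass spectrometry, three biological replicates, mitosis taken 0.5 h after nocodazole release, G1/S directly after double thymidine block.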

Chain of MTR (chain, as listed by the source): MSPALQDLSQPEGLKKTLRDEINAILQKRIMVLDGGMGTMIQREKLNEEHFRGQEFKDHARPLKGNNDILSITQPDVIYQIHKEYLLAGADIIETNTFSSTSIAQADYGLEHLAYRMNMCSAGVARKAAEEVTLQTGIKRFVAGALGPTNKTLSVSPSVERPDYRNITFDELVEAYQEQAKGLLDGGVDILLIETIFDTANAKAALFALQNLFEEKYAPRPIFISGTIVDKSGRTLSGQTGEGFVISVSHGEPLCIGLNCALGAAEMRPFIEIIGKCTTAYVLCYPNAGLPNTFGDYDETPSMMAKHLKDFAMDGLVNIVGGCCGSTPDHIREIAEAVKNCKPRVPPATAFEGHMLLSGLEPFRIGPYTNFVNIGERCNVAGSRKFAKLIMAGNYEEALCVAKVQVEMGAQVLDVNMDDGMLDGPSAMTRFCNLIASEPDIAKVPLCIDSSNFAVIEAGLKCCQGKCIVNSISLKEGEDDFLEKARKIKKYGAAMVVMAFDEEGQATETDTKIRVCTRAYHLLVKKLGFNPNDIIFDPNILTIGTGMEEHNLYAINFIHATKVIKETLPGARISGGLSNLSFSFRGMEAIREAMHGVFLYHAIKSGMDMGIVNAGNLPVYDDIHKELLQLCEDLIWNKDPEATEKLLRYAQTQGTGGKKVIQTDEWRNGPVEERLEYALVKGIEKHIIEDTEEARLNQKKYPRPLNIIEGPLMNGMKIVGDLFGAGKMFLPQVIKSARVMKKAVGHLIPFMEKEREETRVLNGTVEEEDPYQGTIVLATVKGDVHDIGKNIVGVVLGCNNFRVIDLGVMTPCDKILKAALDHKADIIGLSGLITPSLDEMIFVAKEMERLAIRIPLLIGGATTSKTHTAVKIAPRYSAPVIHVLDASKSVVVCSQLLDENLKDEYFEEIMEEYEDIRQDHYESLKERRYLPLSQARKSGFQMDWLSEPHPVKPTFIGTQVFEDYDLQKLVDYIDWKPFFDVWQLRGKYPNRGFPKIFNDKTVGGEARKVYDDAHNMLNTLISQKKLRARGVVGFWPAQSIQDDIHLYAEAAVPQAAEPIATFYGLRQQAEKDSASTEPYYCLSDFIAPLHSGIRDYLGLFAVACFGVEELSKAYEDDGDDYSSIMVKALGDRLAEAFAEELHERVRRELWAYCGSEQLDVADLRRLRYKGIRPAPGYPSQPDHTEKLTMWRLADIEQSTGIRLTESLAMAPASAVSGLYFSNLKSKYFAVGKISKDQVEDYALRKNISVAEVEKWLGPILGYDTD

Substance	solubility in G1/S (log2) [1]	melting temperature ([2]; cell cycle stage: G1/S)	melting temperature ([2]; cell cycle stage: mitosis)	solubility change mitosis (log2) [3]	thermal stability score [4, 5]	thermal stability score ([4]; cell cycle stage: mitosis)
MNTADQARVGPADDGPAPSGEEEGEGGGEAGGKEPAADAAPGPSAAFRLMVTRREPAVKLQYAVSGLEPLAWSEDHRVSVSTARSIAVLELICDVHNPGQDLVIHRTSVPAPLNSCLLKVGSKTEVAECKEKFAASKDPTVSQTFMLDRVFNPEGKALPPMRGFKYTSWSPMGCDANGRCLLAALTMDNRLTIQANLNRLQWVQLVDLTEIYGERLYETSYRLSKNEAPEGNLGDFAEFQRRHSMQTPVRMEWSGICTTQQVKHNNECRDVGSVLLAVLFENGNIAVWQFQLPFVGKESISSCNTIESGITSPSVLFWWEYEHNNRKMSGLIVGSAFGPIKILPVNLKAVKGYFTLRQPVILWKEMDQLPVHSIKCVPLYHPYQKCSCSLVVAARGSYVFWCLLLISKAGLNVHNSHVTGLHSLPIVSMTADKQNGTVYTCSSDGKVRQLIPIFTDVALKFEHQLIKLSDVFGSVRTHGIAVSPCGAYLAIITTEGMINGLHPVNKNYQVQFVTLKTFEEAAAQLLESSVQNLFKQVDLIDLVRWKILKDKHIPQFLQEALEKKIESSGVTYFWRFKLFLLRILYQSMQKTPSEALWKPTHEDSKILLVDSPGMGNADDEQQEEGTSSKQVVKQGLQERSKEGDVEEPTDDSLPTTGDAGGREPMEEKLLEIQGKIEAVEMHLTREHMKRVLGEVYLHTWITENTSIPTRGLCNFLMSDEEYDDRTARVLIGHISKKMNKQTFPEHCSLCKEILPFTDRKQAVCSNGHIWLRCFLTYQSCQSLIYRRCLLHDSIARHPAPEDPDWIKRLLQSPCPFCDSPVF [GTF3C4]	-0.0178	49.4 °C	49.9 °C	-0.0904	1.42	3.08
CKAP5	0.0443	49.6 °C	49.2 °C	-0.078	-0.177	-0.509
MTR	0.00491	48.6 °C	49.9 °C	-0.144	-0.177	0.37
MTDTRRRVKVYTLNEDRQWDDRGTGHVSSGYVERLKGMSLLVRAESDGSLLLESKINPNTAYQKQQDTLIVWSEAENYDLALSFQEKAGCDEIWEKICQVQGKDPSVDITQDLVDESEEERFDDMSSPGLELPSCELSRLEEIAELVASSLPSPLRREKLALALENEGYIKKLLELFHVCEDLENIEGLHHLYEIIKGIFLLNRTALFEVMFSEECIMDVIGCLEYDPALSQPRKHREFLTKTAKFKEVIPISDPELKQKIHQTYRVQYIQDMVLPTPSVFEENMLSTLHSFIFFNKVEIVGMLQEDEKFLTDLFAQLTDEATDEEKRQELVNFLKEFCAFSQTLQPQNRDAFFKTLSNMGILPALEVILGMDDTQVRSAATDIFSYLVEYNPSMVREFVMQEAQQNDDVSKKLTEQKITSKDILLINLIIEHMICDTDPELGGAVQLMGLLRTLVDPENMLATANKTEKTEFLGFFYKHCMHVLTAPLLANTTEDKPSKDDFQTAQLLALVLELLTFCVEHHTYHIKNYIINKDILRRVLVLMASKHAFLALCALRFKRKIIGLKDEFYNRYIMKSFLFEPVVKAFLNNGSRYNLMNSAIIEMFEFIRVEDIKSLTAHVIENYWKALEDVDYVQTFKGLKLRFEQQRERQDNPKLDSMRSILRNHRYRRDARTLEDEEEMWFNTDEDDMEDGEAVVSPSDKTKNDDDIMDPISKFMERKKLKESEEKEVLLKTNLSGRQSPSFKLSLSSGTKTNLTSQSSTTNLPGSPGSPGSPGSPGSPGSVPKNTSQTAAITTKGGLVGLVDYPDDDEDDDEDEDKEDTLPLSKKAKFDS [PPP4R3A]	0.0151	52.9 °C	52 °C	-0.214	-0.659	0.337

Reference: the supplement of paper PMC5998384
